Measurements from patent US20030162190.

Assays:
NF-kB p50 homodimer = NF-kB p50 homodimer (UniProt P19838); test: EMSA; conditions: only 'similar data was collected for p50'; method inferred
[1] = biological target: NF-kB p65 (RelA) homodimer (UniProt Q04206); test: EMSA; conditions: 1:1 stoichiometry; method inferred
NF-kB p65 (RelA) homodimer, sequence (Q04206 whole entry): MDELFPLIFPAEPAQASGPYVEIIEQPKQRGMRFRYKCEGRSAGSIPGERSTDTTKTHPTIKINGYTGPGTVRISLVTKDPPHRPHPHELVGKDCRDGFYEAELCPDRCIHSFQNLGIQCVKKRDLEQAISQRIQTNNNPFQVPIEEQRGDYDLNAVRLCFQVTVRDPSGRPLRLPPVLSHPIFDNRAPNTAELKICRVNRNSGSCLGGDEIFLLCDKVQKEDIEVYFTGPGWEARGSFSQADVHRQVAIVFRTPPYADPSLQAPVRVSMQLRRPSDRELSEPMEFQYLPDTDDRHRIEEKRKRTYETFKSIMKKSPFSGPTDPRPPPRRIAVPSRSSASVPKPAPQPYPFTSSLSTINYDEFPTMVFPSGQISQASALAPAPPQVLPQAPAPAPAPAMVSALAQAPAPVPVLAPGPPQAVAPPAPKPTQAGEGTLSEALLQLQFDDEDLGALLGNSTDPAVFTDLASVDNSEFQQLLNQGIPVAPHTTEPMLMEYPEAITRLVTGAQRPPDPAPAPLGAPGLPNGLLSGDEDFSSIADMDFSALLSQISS

NF-kB p50 homodimer, sequence (P19838 1-433): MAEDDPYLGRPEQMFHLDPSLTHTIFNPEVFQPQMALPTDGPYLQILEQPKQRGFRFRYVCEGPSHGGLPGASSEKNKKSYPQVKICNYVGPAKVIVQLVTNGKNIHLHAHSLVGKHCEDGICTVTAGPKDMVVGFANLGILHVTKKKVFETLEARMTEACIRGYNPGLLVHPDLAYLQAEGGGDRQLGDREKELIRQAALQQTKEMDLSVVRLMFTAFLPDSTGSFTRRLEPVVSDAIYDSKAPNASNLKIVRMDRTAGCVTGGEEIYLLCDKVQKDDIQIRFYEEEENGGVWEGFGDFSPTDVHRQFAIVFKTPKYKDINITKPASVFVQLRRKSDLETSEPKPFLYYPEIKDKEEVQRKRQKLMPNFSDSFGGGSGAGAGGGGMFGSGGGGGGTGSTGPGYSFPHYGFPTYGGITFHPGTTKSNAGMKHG

With IgkB 22-mer promoter site the Kd (NF-kB p50 homodimer) was 4 nM and the Kd [1] was 4 nM.
